# From patent US20240216513A1, “FATTY ACID-BIFUNCTIONAL DEGRADER CONJUGATES AND THEIR METHODS OF USE” (Novartis AG, priority 2021, published 2024)
# Like-named read-outs stand apart in the source and are kept apart here.
# What was measured:
# [1] = In vivo pharmacokinetic study in mice (i.v. or s.c.), FAC and payload in blood; parameters: species or system mouse; conditions: male
# Experimental: (§1) Pharmacokinetic studies were conducted in male C57/B16 mice; male Sprague-Dawley rats; male Beagle dogs and male Cynomolgus monkeys. 3 animals per group were used for each study performed. All studies were performed in accordance with local animal welfare regulations.
# […] Serial 30 µL blood samples were collected via venipuncture of the tail vein in mouse, and via the cannulated jugular vein in rats at defined timepoints to 216 hours (into EDTA coated tubes).
# (§2) Each blood sample was precipitated with acetonitrile containing internal standard; samples were mixed and centrifuged (20 minutes 4000 RPM at 4° C.). Supernatant was transferred to a microwell plate and evaporated under nitrogen at 60° C. Residue was resuspended in acetonitrile/water (7:3 v/v); plate sealed and transferred to an ultrasonic bath for 3 minutes, prior to analysis. Quantification was performed by LC-MS/MS (SciexAP16500 Q-trap, Shimadzu Nexera X2) using a Phenomenex Polar RP analytical column (2.5 μm particle size; 50×2 mm). The mobile phase consisted of solvent A (0.1% formic acid in water) and solvent B (0.1% formic acid in acetonitrile). The fatty acid conjugate and API were detected using multiple reaction monitoring.
# (§3) Data analysis and calculation of non-compartmental pharmacokinetic parameters was
# (§4) performed using an in-house analysis. Following intravenous administration whole blood clearance was calculated by the dose administered divided by AUC0-inf. Volume of distribution at steady state was calculated as MRT*CL, where MRT is the mean residence time, calculated by AUMC0-inf/AUC0-inf. The half-life (t1/2) of the terminal elimination phase was calculated by 0.693/λ. For both intravenous and subcutaneous administration, the systemic exposures were determined by calculating the area under the blood concentration time curve (AUC) from time zero to the last observed quantifiable concentration (AUClast) by using the linear trapezoidal method and normalised to dose. Extrapolated AUC (AUC0-inf) is calculated by addition of AUClast and AUCtlast-inf; where AUCtlast-inf is calculated based on Clast/λ. The slope of the terminal elimination phase was estimated by linear regression of the terminal data points (minimum 3 points) from a natural log concentration versus time plot of the data. Bioavailability was calculated as the dose normalized ratio of […] AUCinf to intravenous AUCinf (100*[SC AUCinf/SC dose]/[IV AUCinf/IV dose]). Following subcutaneous administration Cmax is calculated as the average maximum observed peak concentration and Tmax is the time associated with the determined Cmax.
# For PK experiments, non-tumor bearing mice or rats were treated once (10 mL/kg) with a compound either i.v. or s.c. Serial blood samplings from the tail vein (5-20 μl) were collected during the course of the experiment. For PK/PD experiments in tumor-bearing mice, compound was administered once (10 mL/kg) either i.v. or s.c. Animals were randomized into groups of n=3 and tissue samples were collected at several time points. At the times indicated, animals were anaesthetized by exposure to 2-3% v/v isoflurane in medical oxygen. They were sacrificed without recovering from anesthetic after blood sampling into commercially prepared EDTA coated tubes (Milian, cat #TOM-14C) in order to extract plasma. The tissues were excised, weighted and rapidly frozen in liquid nitrogen. Later, tumors were cryogenic dry pulverized with the CryoPrep™ system (model CP-02, Covaris). For efficacy experiments in ectopic tumor-bearing mice, animals were randomized into groups of n=6 for a mean tumor size of 100 mm^3 and compound was administered either i.v. q3w or s.c. q2w. When implanted in brain, animals were randomized into groups of n=4 for a mean bioluminescence of 1.0-2.0E+06 [p/s]/[ρW/cm^2] and compound was administered i.v. qw. Tumor response were reported with the measures of tumor volumes or bioluminescence from the treatment start. […]
# BTK = target: T1, BTK (Homo sapiens, UniProt Q06187); test: PK/PD in TMD8 tumor-bearing mice: BTK levels in tumor by Meso Scale Discovery; assay type: in vivo, mouse; conditions: for Duration of BTK degradation in mouse ≥90%: I.v.
# T1 construct: endogenous in cells; host or cells: TMD8 tumour xenografts in SCID/BEIGE mice
# Experimental: (§5) All animal experiments were performed according to procedures covered by permit number BS-1974, BS-1975 and BS-2904 issued by the Kantonales Veterinäramt Basel-Stadt and strictly adhered to the Eidgenössisches Tierschutzgesetz and the Eidgenössische Tierschutzverordnung. Female Sprague Dawley rat were obtained from Charles Rivers (Germany), female Balb/c mice from Charles Rivers (Italy) and female SCID/BEIGE (C.B-Igh-1b/GbmsTac-Prkdcscid-Lystbg N7) mice from Taconic. All the animals were housed in a pathogen-controlled environment with access to food and water ad libitum and they were identified with transponders.
# (§6) Subcutaneous TMD8 tumors were induced by injecting tumor cells expanded in vitro in the right flank of SCID/BEIGE mice. As soon as the injection was finished, antagonization (naloxone, flumazenil and atipamezole injected s.c.) was injected and mice are put on a warming pad for recovery and carefully checked during that time.
# (§7) For PK experiments, non-tumor bearing mice or rats were treated once (10 mL/kg) with a compound either i.v. or s.c. Serial blood samplings from the tail vein (5-20 μl) were collected during the course of the experiment. For PK/PD experiments in tumor-bearing mice, compound was administered once (10 mL/kg) either i.v. or s.c. Animals were randomized into groups of n=3 and tissue samples were collected at several time points. At the times indicated, animals were anaesthetized by exposure to 2-3% v/v isoflurane in medical oxygen. They were sacrificed without recovering from anesthetic after blood sampling into commercially prepared EDTA coated tubes (Milian, cat #TOM-14C) in order to extract plasma. The tissues were excised, weighted and rapidly frozen in liquid nitrogen. Later, tumors were cryogenic dry pulverized with the CryoPrep™ system (model CP-02, Covaris). For efficacy experiments in ectopic tumor-bearing mice, animals were randomized into groups of n=6 for a mean tumor size of 100 mm^3 and compound was administered either i.v. q3w or s.c. q2w. When implanted in brain, animals were randomized into groups of n=4 for a mean bioluminescence of 1.0-2.0E+06 [p/s]/[ρW/cm^2] and compound was administered i.v. qw. Tumor response were reported with the measures of tumor volumes or bioluminescence from the treatment start. Concentrations of compound in blood and tissues were determined simultaneously by UPLC/MS-MS. BTK and IL-10 levels in tumor were determined by Meso Scale Discovery (MSD).
# TMD8 tumors = test: Efficacy in ectopic (subcutaneous) TMD8 tumor-bearing SCID/BEIGE mice, tumor volume; assay type: in vivo, mouse; conditions: I.v.
# Experimental: as §5, §6, §7
# [2] = BTK FAC plasma stability assay, PBS buffer arm; assay type: physicochemical
# Procedure, shortened: (§8)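 Compound from a 500 µM acetonitrile:water working solution was spiked into K3-EDTA plasma or Dulbecco's PBS and incubated with shaking at 38 °C. Samples taken at 0, 2, 6 and 24 h were precipitated with cold acetonitrile containing glyburide internal standard. Semi-quantitative LC-MS/MS used analyte:internal standard peak area ratios.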
# [3] = BTK FAC plasma stability assay, mouse plasma; assay type: in vitro ADME
# Procedure, shortened: as §8
# [4] = BTK FAC plasma stability assay, rat plasma; assay type: in vitro ADME
# Procedure, shortened: as §8
# [5] = BTK FAC plasma stability assay, dog plasma; assay type: in vitro ADME
# [6] = In vivo pharmacokinetic study in Beagle dogs (i.v. or s.c.), FAC and payload in blood; parameters: species or system dog; conditions: analyte payload after FAC i.v. dose 1 umol/kg
# Experimental: as §1
# (§9) Between 1 and 10 µM/kg FAC was administered either intravenously or subcutaneously as a solution in 10 mM PBS with NaOH (dose volume 0.4 mL/kg in dog and monkey s.c. and 0.2 mL/kg i.v. in monkey). Serial 100 µL blood samples were collected via venipuncture of the cephalic vein at defined timepoints to 336 hours (into EDTA coated tubes).
# as §2, §3, §4
# [7] = In vivo pharmacokinetic study in Cynomolgus monkeys (i.v. or s.c.), FAC and payload in blood; parameters: species or system cynomolgus monkey; conditions: analyte FAC, FAC i.v. dose 1 umol/kg
# Experimental: as §1, §9, §2, §3, §4
# [8] = C57/B16, mouse, in vivo, sc, 40 umol/kg
# T1 sequence (Q06187 whole entry): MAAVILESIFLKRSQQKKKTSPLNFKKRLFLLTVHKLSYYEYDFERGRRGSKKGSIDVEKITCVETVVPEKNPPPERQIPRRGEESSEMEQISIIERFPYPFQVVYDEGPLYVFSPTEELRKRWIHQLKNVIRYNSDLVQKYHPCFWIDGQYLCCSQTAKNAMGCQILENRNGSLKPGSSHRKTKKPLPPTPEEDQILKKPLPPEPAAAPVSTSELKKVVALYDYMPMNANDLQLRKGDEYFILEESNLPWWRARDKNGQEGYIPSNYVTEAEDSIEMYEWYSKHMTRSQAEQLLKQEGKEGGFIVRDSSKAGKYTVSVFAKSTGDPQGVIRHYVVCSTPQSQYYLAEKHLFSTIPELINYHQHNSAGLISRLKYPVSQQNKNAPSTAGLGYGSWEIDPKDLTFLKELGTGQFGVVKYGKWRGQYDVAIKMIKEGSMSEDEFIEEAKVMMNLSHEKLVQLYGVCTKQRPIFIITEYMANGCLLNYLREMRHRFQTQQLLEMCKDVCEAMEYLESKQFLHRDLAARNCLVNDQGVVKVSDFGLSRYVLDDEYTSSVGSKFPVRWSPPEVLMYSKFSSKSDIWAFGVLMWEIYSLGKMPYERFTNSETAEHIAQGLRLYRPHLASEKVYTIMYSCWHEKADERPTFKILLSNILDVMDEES
structure (smiles),measurement,setting,value
"Cc1c(NC(=O)c2ccc(C(C)(C)O)cc2F)cc(F)cc1-c1ncnc2[nH]c(-c3ccc(CN4CCC(OC5CCN(CCn6cccc(CN7CCC(=O)NC7=O)c6=O)CC5)CC4)cc3)cc12 [Compound N, N-(3-(6-(4-((4-((1-(2-(3-((2,4-Dioxotetrahydropyrimidin-1(2H)-yl)methyl)-2-oxopyridin-1(2H)-yl)ethyl)piperidin-4-yl)oxy)piperidin-1-yl)methyl)phenyl)-7H-pyrrolo[2,3-d]pyrimidin-4-yl)-5-fluoro-2-methylphenyl)-2-fluoro-4-(2-hydroxypropan-2-yl)benzamide]",AUC,"[1]; C57/B16, whole blood, iv, Mouse, unconj. BTK Degrader dosed itself (i.v. per row label), API dose 10 umol/kg, read-out: Payload (BTK Degrader) AUC",9.3 µM·h
same,Cmax,"[1]; C57/B16, whole blood, iv, Mouse, unconj. BTK Degrader dosed itself (i.v. per row label), API dose 10 umol/kg, read-out: Payload (BTK Degrader) Cmax",1.6 µM
same,Duration of BTK degradation in mouse ≥90%,BTK; 20 mg/kg (unconjugated N),4 days
same,Duration of BTK degradation in mouse ≥90% (days),"BTK; s.c., 10 mg/kg (unconjugated N)",1(10 mg/kg) days
same,Dosing to achieve sustained ~90% regression,TMD8 tumors,20 mg/kg 2qw
"CCCCCCCCCCCN(C(=O)CCCCCCCCCC(=O)O)[C@@H](CCC(=O)NCCOCCOCCOCCOCCOCCOCCOCCOCCOCCOCCOCCOCCC(=O)NCC(=O)OC(C)(C)c1ccc(C(=O)Nc2cc(F)cc(-c3ncnc4[nH]c(-c5ccc(CCN6CCC7(CC6)CCN(C(=O)c6ccc(OC)c(N8CCC(=O)NC8=O)c6)CC7)cc5)cc34)c2C)c(F)c1)C(=O)O [Example A2, (S)-50-Carboxy-2-(4-((3-(6-(4-(2-(9-(3-(2,4-dioxotetrahydropyrimidin-1(2H)-yl)-4-methoxybenzoyl)-3,9-diazaspiro[5.5]undecan-3-yl)ethyl)phenyl)-7H-pyrrolo[2,3-d]pyrimidin-4-yl)-5-fluoro-2-methylphenyl)carbamoyl)-3-fluorophenyl)-2-methyl-4,7,47,52-tetraoxo-51-undecyl-3,10,13,16,19,22,25,28,31,34,37,40,43-tridecaoxa-6,46,51-triazadohexacontan-62-oic acid]",% Release of degrader after 24 h PBS,[2]; 24 h,0.8%
same,Plasma stability (h) PBS,[2]; incubation to 24 h,>48 h
same,% Release of degrader after 24 h mouse,[3]; 24 h,3.4%
same,Plasma stability (h) mouse,[3]; incubation to 24 h,12.3 h
same,% Release of degrader after 24 h rat,[4]; 24 h,8.9%
same,Plasma stability (h) rat,[4]; incubation to 24 h,18.1 h
same,Plasma stability (h) dog,[5],>48 h
same,% Release of degrader after 24 h dog,[5]; 24 h,7.3%
same,Payload C0-uM dog,[6],0.2 µM
same,C0,[7]; read-out: FAC C0-uM cyno,56.6 µM
same,AUC,"[7]; male, cynomolgus monkey, whole blood, iv, read-out: FAC AUC-uM.h cyno",590 µM·h
"CCCCCCCCCCC[C@@](CCCCCCCCCCC(=O)O)(C(=O)O)C(=O)NCCOCCOCCOCCOCCOCCOCCOCCOCCOCCOCCOCCOCCC(=O)NCC(=O)OC(C)(C)c1ccc(C(=O)Nc2cc(F)cc(-c3ncnc4[nH]c(-c5ccc(CN6CCC(OC7CCN(CCn8cccc(CN9CCC(=O)NC9=O)c8=O)CC7)CC6)cc5)cc34)c2C)c(F)c1 (single isomer, unassigned) [Compound B2]",AUC,[1]; [8],1860 µM·h
same,Cmax,[1]; [8],60 µM
same,Duration of BTK degradation in mouse ≥90%,BTK; 40 umol/kg,10 days
same,Dosing to achieve sustained ~90% regression,TMD8 tumors,60 umol/kg q3w
"CCCCCCCCCCC[C@](CCCCCCCCCCC(=O)O)(C(=O)O)C(=O)NCCOCCOCCOCCOCCOCCOCCOCCOCCOCCOCCOCCOCCC(=O)NCC(=O)OC(C)(C)c1ccc(C(=O)Nc2cc(F)cc(-c3ncnc4[nH]c(-c5ccc(CN6CCC(OC7CCN(CCn8cccc(CN9CCC(=O)NC9=O)c8=O)CC7)CC6)cc5)cc34)c2C)c(F)c1 (single isomer, unassigned) [Compound B3]",AUC,[1]; [8],3850 µM·h
same,Cmax,[1]; [8],68 µM
same,Duration of BTK degradation in mouse ≥90%,BTK; 40 umol/kg,14 days
same,Dosing to achieve sustained ~90% regression,TMD8 tumors,20 umol/kg q3w
